Experimental data reported in the array DNA melting data of Ke et al..

Test: melting temperature; melt of duplexes
Details: sodium 0.0675 M; strand 1 µM

Substance	Tm [°C]
CGACGTGCAATATGTGCTG+CAGCACATCTCGCACGTCG ((((((((.(.((((((((+)))))))).).))))))))	48.4
CGACGTGCAATATGTGCTG+CAGCACATCTTGCACGTCG ((((((((((.((((((((+)))))))).))))))))))	54.8
CGACGTGCAATATGTGCTG+CAGCACATGACGCACGTCG ((((((((...((((((((+))))))))...))))))))	48.2
CGACGTGCAATATGTGCTG+CAGCACATGCAGCACGTCG ((((((((...((((((((+))))))))...))))))))	52.1
CGACGTGCAATATGTGCTG+CAGCACATGCTGCACGTCG (((((((((..((((((((+))))))))..)))))))))	50.7
CGACGTGCAATATGTGCTG+CAGCACATGGAGCACGTCG ((((((((...((((((((+))))))))...))))))))	51
CGACGTGCAATATGTGCTG+CAGCACATGGCGCACGTCG ((((((((...((((((((+))))))))...))))))))	50.5
CGACGTGCAATATGTGCTG+CAGCACATGTAGCACGTCG ((((((((.(.((((((((+)))))))).).))))))))	52
CGACGTGCAATATGTGCTG+CAGCACATGTCGCACGTCG ((((((((.(.((((((((+)))))))).).))))))))	51.5
CGACGTGCAATATGTGCTG+CAGCACATGTTGCACGTCG ((((((((((.((((((((+)))))))).))))))))))	58.4
CGACGTGCAATATGTGCTG+CAGCACATTCGGCACGTCG ((((((((...((((((((+))))))))...))))))))	49.5
CGACGTGCAATATGTGCTG+CAGCACATTGAGCACGTCG ((((((((...((((((((+))))))))...))))))))	50.4
CGACGTGCAATATGTGCTG+CAGCACATTGCGCACGTCG ((((((((...((((((((+))))))))...))))))))	50
CGACGTGCAATATGTGCTG+CAGCACATTTCGCACGTCG ((((((((.(.((((((((+)))))))).).))))))))	50.1
CGACGTGCACAATGTGCTG+CAGCACATAAAGCACGTCG ((((((((...((((((((+))))))))...))))))))	47.4
CGACGTGCACAATGTGCTG+CAGCACATAACGCACGTCG ((((((((...((((((((+))))))))...))))))))	45.3
CGACGTGCACAATGTGCTG+CAGCACATAAGGCACGTCG ((((((((...((((((((+))))))))...))))))))	46.8
CGACGTGCACAATGTGCTG+CAGCACATACAGCACGTCG ((((((((...((((((((+))))))))...))))))))	45.4
CGACGTGCACAATGTGCTG+CAGCACATACCGCACGTCG ((((((((...((((((((+))))))))...))))))))	44.6
CGACGTGCACAATGTGCTG+CAGCACATACGGCACGTCG ((((((((...((((((((+))))))))...))))))))	44.7
CGACGTGCACAATGTGCTG+CAGCACATAGTGCACGTCG ((((((((((.((((((((+)))))))).))))))))))	53.5
CGACGTGCACAATGTGCTG+CAGCACATATCGCACGTCG ((((((((...((((((((+))))))))...))))))))	44.6
CGACGTGCACAATGTGCTG+CAGCACATATGGCACGTCG ((((((((...((((((((+))))))))...))))))))	47.7
CGACGTGCACAATGTGCTG+CAGCACATATTGCACGTCG (((((((((..((((((((+))))))))..)))))))))	48
CGACGTGCACAATGTGCTG+CAGCACATCACGCACGTCG ((((((((...((((((((+))))))))...))))))))	45.3
CGACGTGCACAATGTGCTG+CAGCACATCCGGCACGTCG ((((((((...((((((((+))))))))...))))))))	46.1
CGACGTGCACAATGTGCTG+CAGCACATCGAGCACGTCG ((((((((.(.((((((((+)))))))).).))))))))	48.6
CGACGTGCACAATGTGCTG+CAGCACATCGTGCACGTCG ((((((((((.((((((((+)))))))).))))))))))	53
